Data as given in paper PMC3739785, “A Primate Specific Extra Domain in the Molecular Chaperone Hsp90” (PLoS ONE, 2013).

Assays:
[1] = target: T1, human Hsp90α (human, UniProt P07900-1 1-732); experiment: SEC; chaperone and cochaperone at 2.5 µM, 10 min at 30°C following 10 min on ice, 40 mM Hepes-KOH pH 7.4, 50 mM KCl, 2 mM Mg2Cl; Superdex 200 HR 10/30 in the same buffer; fractions analysed by SDS-PAGE (Western blot for Aha1 and Cdc37 in the Hsp103 runs); shift of the cochaperone to higher molecular mass; conditions: both partners purified
T1 construct: human Hsp90α (Hsp90AA1-1), canonical isoform, 732 aa as printed; also called Hsp90AA1-1; heat shock protein 90

[2] = target: T2, human Hsp103 (human, UniProt P07900-2 1-854); experiment: as above; conditions: both partners purified
T2 construct: human Hsp103, the isoform of Hsp90α with an additional 122 aa (E domain) at the N-terminus; printed length 854 aa (also printed as 852 aa for Hsp90AA1-2); also called Hsp90AA1-2; Hsp90α with extra E domain

binding result [1]: binds
binding result [2]: binds
B1: human Cdc37 (natural protein, UniProt Q16543 1-378, looked up)
chain: MVDYSVWDHIEVSDDEDETHPNIDTASLFRWRHQARVERMEQFQKEKEELDRGCRECKRKVAECQRKLKELEVAEGGKAELERLQAEAQQLRKEERSWEQKLEEMRKKEKSMPWNVDTLSKDGFSKSMVNTKPEKTEEDSEEVREQKHKTFVEKYEKQIKHFGMLRRWDDSQKYLSDNVHLVCEETANYLVIWCIDLEVEEKCALMEQVAHQTIVMQFILELAKSLKVDPRACFRQFFTKIKTADRQYMEGFNDELEAFKERVRGRAKLRIEKAMKEYEEEERKKRLGPGGLDPVEVYESLPEELQKCFDVKDVQMLQDAISKMDPTDAKYHMQRCIDSGLWVPNSKASEAKEGEEAGPGDPLLEAVPKTGDEKDVSV
notes: human Cdc37, cochaperone of Hsp90
